Measurements: patent US20040157227A1, “Reproductive cancer diagnosis and therapy” (priority 2001, published 2004)

B1: ghrelin (peptide)
peptide: GSSFLSPEHQRVQQRKESKKPPAKLQPRALAGWLRPEDGGQAEGAEDELEVRFNAPFDVGIKLSGVQYQQHSQALGKFLQDILWEEAKEAPADK
notes: endogenous ligand for the GHS-R, a 28 amino acid peptide

Assays:
[1] = target: growth hormone secretagogue receptor type 1a (human) (UniProt Q92847); experiment: cell-based or functional assay
PC3 cells = experiment: Cell proliferation assay (MTT dye method), PC3 cells; format: cell-based, human; conditions: 5 nM ghrelin, 3 days, 10% FCS
Procedure: FIG. 13: The effect of ghrelin on PC3 cells. Cell proliferation was determined using the MTT dye method. Absorbance readings for each were converted to percentage above control±SEM, indicated by error bars. * denotes P values <0.01, ** P<0.001 (one-way ANOVA with Tukey's post hoc comparisons). Data represents one of 3 identical experiments, each n=16.
(§1) PC3, MDAMB231 and Ishikawa cells were cultured in 96 well plates for 3 days at 37° C. in the presence of ghrelin (0-20 nM), in 10% FCS. Negative controls received no treatment. After aspiration of medium, cells were incubated in MTT (Sigma) solution (0.5 mg/ml) for 2h. MTT solution was aspirated and formazan salts solubilised in dimethyl sulfoxide (ICN, Costa Mesa, Calif.). A Biomeck Plate reader (Beckman, QLD, Australia) was used to measure absorbances (550/650nm).

Ishikawa cells = experiment: Cell proliferation assay (MTT dye method), Ishikawa cells; format: cell-based, human; conditions: ghrelin 0-20 nM, 3 days, 10% FCS
Procedure: (§2) FIG. 14: The effect of ghrelin on MDA-MB231 and Ishikawa cells. Cell proliferation was determined using the MTT dye method. Absorbance readings for each were converted to percentages above control±SEM, indicated by error bars. * denotes P values <0.01, ** P<0.001 (one-way ANOVA with Tukey's post hoc comparisons).
as §1

MDA-MB 231 cells = experiment: Cell proliferation assay (MTT dye method), MDA-MB 231 cells; format: cell-based, human; conditions: ghrelin 0-20 nM, 3 days, 10% FCS
Procedure: as §2, §1

UniProt Q92847, sequence (Q92847 whole entry): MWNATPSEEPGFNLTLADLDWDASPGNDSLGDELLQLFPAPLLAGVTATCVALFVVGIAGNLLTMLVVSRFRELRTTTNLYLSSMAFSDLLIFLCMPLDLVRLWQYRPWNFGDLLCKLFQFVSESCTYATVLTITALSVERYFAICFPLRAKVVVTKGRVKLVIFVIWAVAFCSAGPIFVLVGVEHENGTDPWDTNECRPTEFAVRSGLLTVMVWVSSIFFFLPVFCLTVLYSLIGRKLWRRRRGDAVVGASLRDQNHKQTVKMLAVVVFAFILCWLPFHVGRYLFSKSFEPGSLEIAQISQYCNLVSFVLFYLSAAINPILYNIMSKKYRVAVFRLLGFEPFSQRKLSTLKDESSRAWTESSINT

Molecule	Cell proliferation of PC3 cells (MTT dye method) (% above controls) [1]	viable cell numbers increased above controls (peak of dose-related increase) (PC3 cells) [%]	dose related increase in cell proliferation above untreated controls (peak) (Ishikawa cells) [%]	dose related increase in cell proliferation above untreated controls (peak) (MDA-MB 231 cells) [%]
human ghrelin (from UniProt Q9UBU3 24-117) (peptide)	33			
B1		33	19	25
